Assay results taken from patent US20210139964, “RNA TAGGING SYSTEM FOR VISUALIZATION OF SINGLE MRNA MOLECULES” (ALBERT EINSTEIN COLLEGE OF MEDICINE, published 2021).
Where two headings read alike, the source gives them in different places.

How the values were obtained:
[1] = biological target: MS2 coat protein (literature) (Enterobacteria phage MS2) (UniProt P03612); conditions: CITED Lowary and Uhlenbeck 1987, cited from earlier work
MS2 coat protein (MCP) = MS2 coat protein (MCP) (Enterobacteria phage MS2, UniProt P03612 P03612:2-130); assay: EMSA; sub-nanomolar; exact value only in figure; about 10-fold tighter than wt (p109); 10 mM Tris, 100 mM NaCl, 0.1 mM EDTA, tRNA, heparin, room temperature, 3 h; conditions: tags: MBP-TEV N-terminal, C-terminal 6xHis (plasmid pET336, E. coli Rosetta2); chain copies: 2 (inferred); label: 5' fluorescein; hairpin
Method: Design of a new MBS-MCP system faithfully recapitulating mRNA kinetics —We considered four variables that could influence the ability of the MS2 array to block degradation by […] when MCP is bound. First, the loop sequence can affect the affinity of MCP for the stem. […] The current MBSV5 and MBSORF versions have a U to C change in position −5 of all loops (FIG. 2A-C). We compared the high affinity C-variant loops to the wt-loops (FIG. 2D). The affinities of the MBS-MCP binding were analyzed by electrophoretic mobility shift assay (EMSA). As a control, we used the original loop sequence from the bacteriophage with a U or a C at position −5. In addition, C or U variants were generated for two MS2 loops (Loop1 and Loop2), each of them with a different stem sequence (FIG. 2D). Apparent equilibrium dissociation constants (Kd) were extracted from plots of MCP bound versus free (FIG. 2E-G).
Complexes were monitored and quantified by EMSA as previously described (Chao et al., 2008). In brief, 100 pM RNAs were incubated at room temperature for three hours with 2 fold dilutions of MCP in 10 mM Tris, 100 mM NaCl, 0.1 mM EDTA, 0.01 mg/mL tRNA, […] heparin and 0.01% IGEPAL CA630. Complexes were then run using 5% native PAGE in 0.5×TBE and visualized using the Typhoon 9400 variable mode laser scanner (GE Healthcare).

Sequence of MS2 coat protein (literature) (Enterobacteria phage MS2) (P03612 2-130): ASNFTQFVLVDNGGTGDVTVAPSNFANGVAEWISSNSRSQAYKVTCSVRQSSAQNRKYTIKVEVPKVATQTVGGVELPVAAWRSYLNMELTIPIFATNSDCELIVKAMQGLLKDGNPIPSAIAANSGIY
Sequence of MS2 coat protein (MCP) (P03612 2-130, one chain of several): as the sequence (P03612 2-130) above

For MS2 wt operator loop (literature), the Kd ([1]; Valegard et al.) is given as 10 nM.

For “MS2 C-variant operator loop (literature)”, the Kd ([1]; dissociation about 90 times slower than wt) is listed as 1 nM.

ACAUGAGGAUCACCCAUGU (ssRNA) [MS2 C-variant stem loop] gave a Kd (MS2 coat protein (MCP)) of less than 1 nM.
